Article PMC7472727, “Novel Escherichia coli RNA Polymerase Binding Protein Encoded by Bacteriophage T5”

Molecular target: RNAP holoenzyme with [211Cys-TMR] sigma70 (RNAP beacon);gpT5.026 (Escherichia coli;Escherichia phage T5, UniProt P0A7Z4;P0A8V2;P0A8T7;P0A800;P00579;Q6QGR1 1-329;1-1342;1-1407;2-91;1-613;1-153, S211C|)
Assay: fluorescence RNAP beacon titration; 100 nM gpT5.026 preincubated 15 min; 40 mM Tris-HCl pH 8.0, 100 mM NaCl, 5% glycerol, 1 mM DTT, 10 mM MgCl2, 0.02% Tween 20, 25 C; 1 nM labeled RNAP holoenzyme
Conditions: protein: recombinant;recombinant; chain copies: 2;1;1;1;1;1

B1: [-38/-12] upstream double-stranded probe (dsDNA)
DNA 1: TATTTGACATCAGGAAAATTTTTTGGT
DNA 2: ACCAAAAAATTTTCCTGATGTCAAATA
- binding signal: ~3 fold higher affinity than without gpT5.026
